B1: FtsX (Rv3101c) of Mycobacterium tuberculosis (natural protein)
chain: MRFGFLLNEVLTGFRRNVTMTIAMILTTAISVGLFGGGMLVVRLADSSRAIYLDRVESQVFLTEDVSANDSSCDTTACKALREKIETRSDVKAVRFLNRQQAYDDAIRKFPQFKDVAGKDSFPASFIVKLENPEQHKDFDTAMKGQPGVLDVLNQKELIDRLFAVLDGLSNAAFAVALVQAIGAILLIANMVQVAAYTRRTEIGIMRLVGASRWYTQLPFLVEAMLAATMGVGIAVAGLMVVRALFLENALNQFYQANLIAKVDYADILFITPWLLLLGVAMSGLTAYLTLRLYVRR
notes: also called MtbFtsX
B2: FtsE (Rv3102c) of Mycobacterium tuberculosis (natural protein)
chain: MMITLDHVTKQYKSSARPALDDINVKIDKGEFVFLIGPSGSGKSTFMRLLLAAETPTSGDVRVSKFHVNKLRGRHVPKLRQVIGCVFQDFRLLQQKTVYDNVAFALEVIGKRTDAINRVVPEVLETVGLSGKANRLPDELSGGEQQRVAIARAFVNRPLVLLADEPTGNLDPETSRDIMDLLERINRTGTTVLMATHDHHIVDSMRQRVVELSLGRLVRDEQRGVYGMDR
notes: also called MtbFtsE; NBD

Columns and labels:
MtbFtsEX/RipC = biological target: T1, MtbFtsEX/RipC (Mycobacterium tuberculosis, UniProt O05779)
T1 construct: gene ftsE
T1 sequence (P9WHU3 34-385, one chain of several, further chain): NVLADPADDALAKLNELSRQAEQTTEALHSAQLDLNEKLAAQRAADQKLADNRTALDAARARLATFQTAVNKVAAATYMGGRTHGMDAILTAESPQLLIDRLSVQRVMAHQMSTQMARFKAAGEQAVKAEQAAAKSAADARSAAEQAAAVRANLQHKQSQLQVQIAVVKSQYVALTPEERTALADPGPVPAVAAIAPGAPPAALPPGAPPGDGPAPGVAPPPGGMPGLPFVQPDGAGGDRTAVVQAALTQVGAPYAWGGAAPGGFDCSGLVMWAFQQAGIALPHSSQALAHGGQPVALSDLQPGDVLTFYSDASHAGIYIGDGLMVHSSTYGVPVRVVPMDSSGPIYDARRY

[1] = biological target: the molecule itself; test: cryo-EM structure; FtsEX or FtsEX-RipC in peptidiscs, 3 mg/ml, ATP-free
[2] = biological target: B1; test: as above; conditions: both partners purified

In the case of Nc1ncnc2c1ncn2[C@@H]1O[C@H](COP(=O)(O)OP(=O)(O)O)[C@@H](O)[C@H]1O [ADP], the “cryo-EM structure, 5.7 Å, polyalanine model” value (MtbFtsEX/RipC) is reported as “with EM density compatible with an ADP molecule”.

With B1 the “stoichiometry N” value [1] was 2.

B2: binds [2].
